Measured values from JPH11332594A (dated 1999).
Each block holds one binder with its values, some of them ahead of it.

Target: T1, ヒト可溶性CD4 (human soluble CD4 made in Example 1, C-terminal FLAG-tag, expressed in COS7 cells) (human, UniProt P01730 26-396)
T1 construct: extracellular domain; Purified on anti-FLAG-M2 gel; also called ヒトCD4抗原
Assay: SPR, BIA-core2000; human soluble CD4 amine-coupled to CM5 chip, antibody as analyte (50 μg/ml)

- Kd: 1.24 nM
- koff: 2.92e-05 s⁻¹
B1: キメラ4H5抗体 (human-mouse chimeric anti-CD4 antibody expressed from plasmid pG14H5 in COS7 cells) (antibody, V domains shown)
VH: LQQSGPELVKPGASVKMSCKASGYTFTDYVINWLNQRTGQGLEWIGEIYPGSGSAYYNEMFKGKATLTADKSSNTAYMQLSSLTSEDSAVYFCARRGTGTGFAYWGRGTLVTVSA
VL: LTQSPASLAVSLGQRATISCKASQSVDYDGDSYMNWYQQKPGQPPKLLIYAASNLESGIPARFSGSGSGTDFTLNIHPVEEEDAATYYCQQSSEDPPTFGGGTKLEIK
notes: The human light chain constant region is not specified; also called chimeric 4H5 antibody; ヒトマウスキメラ抗CD4抗体

- Kd: 0.808 nM
- koff: 5.33e-06 s⁻¹
B2: 4H5抗体 (anti-human CD4 mouse monoclonal antibody from Mouse-Mouse hybridoma 4H5, FERM P-16807) (antibody, V domains shown)
VH: QVQLQQSGPELVKPGASVKMSCKASGYTFTDYVINWLNQRTGQGLEWIGEIYPGSGSAYYNEMFKGKATLTADKSSNTAYMQLSSLTSEDSAVYFCARRGTGTGFAYWGRGTLVTVSA
VL: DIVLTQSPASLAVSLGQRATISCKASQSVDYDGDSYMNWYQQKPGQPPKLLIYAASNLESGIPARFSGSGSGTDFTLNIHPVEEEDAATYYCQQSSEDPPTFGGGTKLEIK
notes: Whole mouse monoclonal antibody from the hybridoma; also called 4H5 antibody; 抗ヒトCD4抗体(4H5抗体)
